Patent US20220372112A1 (KEYMED BIOSCIENCES, published 2022)

T1: human Claudin 18.2 (human, UniProt P56856-2 1-261)
T1 construct: whole, on cells
T1 sequence (looked up): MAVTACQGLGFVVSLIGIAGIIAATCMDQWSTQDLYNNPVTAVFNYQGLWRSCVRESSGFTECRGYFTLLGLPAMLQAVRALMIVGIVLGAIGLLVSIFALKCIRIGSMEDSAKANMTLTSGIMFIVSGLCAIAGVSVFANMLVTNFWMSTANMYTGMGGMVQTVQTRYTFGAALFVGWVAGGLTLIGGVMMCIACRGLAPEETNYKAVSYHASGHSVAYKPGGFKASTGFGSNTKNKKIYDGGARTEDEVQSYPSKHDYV

T2: human Claudin 18.1 (human, UniProt P56856 1-261)
T2 construct: whole, on cells
T2 sequence (looked up): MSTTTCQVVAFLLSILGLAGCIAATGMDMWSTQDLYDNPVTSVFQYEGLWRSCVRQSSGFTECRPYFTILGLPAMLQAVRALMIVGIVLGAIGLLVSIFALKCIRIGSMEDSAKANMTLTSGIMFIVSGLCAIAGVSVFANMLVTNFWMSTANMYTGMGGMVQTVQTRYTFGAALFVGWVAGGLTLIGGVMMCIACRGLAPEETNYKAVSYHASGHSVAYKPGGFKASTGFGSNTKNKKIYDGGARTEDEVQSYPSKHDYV


Assays:
[1] = molecular target: T1, human Claudin 18.2; assay: flow cytometry (iQue) on HEK293-Claudin 18.2 cells, chimeric IgG1
Experimental: (§1) The HEK293-Claudin 18.1 cells, HEK293-Claudin 18.2 cells and HEK293 cells at logarithmic growth phase were taken, after digesting, added at 5×10⁴ cells/100 μL to the U-shaped 96-well plate, centrifuged at 1100 rpm for 3 minutes, the supernatant was discarded, the cells were gently patted and loosed, 50 μL of antibody diluted according to the series was added to each well (antibody concentration starts from 100 nM, 5 times dilution in 8 series), and incubate at 4° C. for 1 hour. After the incubation, 140 μL 0.5% BSA was added to each well to wash 3 times, the secondary antibody AlexaFluro647 anti-human IgG (Jackson ImmunoResearch, catalog number: 109-606-170) was added with 30 μL/well, and incubated at 4° C. for 40 minutes. After the incubation, 140 μL 0.5% BSA was added to each well to wash 3 times, and finally resuspended each well with 50 μL PBS for flow cytometry (iQue Screener) detection.

[2] = molecular target: T2, human Claudin 18.1; assay: flow cytometry on HEK293-Claudin 18.1 cells, chimeric IgG1
Experimental: as §1

[3] = molecular target: T1, human Claudin 18.2; assay: flow cytometry (iQue) on cells, antibody from 100 nM in 5-fold steps; cell line not named in Example 5
Experimental: The cells at logarithmic growth phase were taken, blocked with 3% BSA for 30 minutes, plated at 5×10⁴ cells/100 μL into a U-shaped 96-well plate, centrifuged at 1100 rpm for 3 minutes, the supernatant was discarded, the cells were gently patted and loosed, 50 μL of antibody diluted according to the series was added to each well (antibody concentration starts from 100 nM, 5 times dilution in 8 series), incubated at 4° C. for 1 hour. After the incubation, 140 μL of 0.5% BSA was added to each well to wash 3 times, AF 647 APC anti-human secondary antibody was added with 30 μL/well and incubated at 4° C. for 40 minutes. After the incubation, 140 μL of 0.5% BSA was added to each well to wash 3 times, and finally resuspended each well with 50 μL PBS for iQue (Intellicyt, USA) detection (shown in Table 2).

EC50 [1] | EC50 [3] | Binder | binding result [2]
0.17 nM | 3.32 nM | 15F9 (antibody, V domains shown, also called Clone 15F9; 15F9 Chimera) VH: EIQLVQSGPELKKPGETVKISCKASGYTFTNYGINWVKQAPGKGLKWMGWINPNTGETTYAEEFKGRFALSWKTSASTAYLQINNLKNEDTATYFCARLYYGNRFDYWGQGTTLTVSS VL: DIVMTQSPSSLTVTAGEKVTMSCKSSQSLLNSGNQRNYLTWYQQKPGQPPKLLIYWASTRESGVPDRFTGSGSGTDFTLTISSVQAEDLAVYYCQNAYYYPLTFGAGTKLEIK | no binding (tested: 100 nM (highest concentration tested))
2.14 nM |  | 25F5 (antibody, V domains shown, also called Clone 25F5) VH: QVQLKQSGAELVKPGASLKLSCKASGYTFTTYGINWVRQRPEQGLEWIGWIFPGDATTMYNEKFKGTATLTADKSSSTAYMQLSGLTSEDSAVYFCARFYYGNSFVDWGQGTLVTVSA VL: DIVMTQSPSSLTVTAGEKVTMSCKSSQSLLNSGNQKNYLTWYQQKPGQPPKLLIYWASTRESGVPDRFTGSGSGTDFTLTISSVQAEDLAVYYCQNAYYYPLTFGAGTKLEIK | no binding (tested: 100 nM (highest concentration tested))
0.37 nM | 2.07 nM | 18D10 (antibody, V domains shown, also called Clone 18D10; 18D10 Chimera) VH: DVQLQESGPGLVKPSQSLSLTCTVTGYSITSNYAWNWIRQFPGNKLEWMGYINYSGNTNYNPSLKSRISITRDTSKNQFFLQLNSVTAEDTATYYCATSYYGNSFIYWGQGTLVTVSA VL: DIVMTQSPSSLTVTAGEKVTMSCKSSQSLLNSGNQKNYLTWYQQKPGQPPKLLIYWASTRESGVPDRFTGSGSGTDFTLTISSVQAEDLAVYYCQNAYSFPWTFGGGTKLEIK | no binding (tested: 100 nM (highest concentration tested))
0.59 nM |  | 15A7 (antibody, V domains shown, also called Clone 15A7) VH: QVQLQQSGAELVKPGYSVKLSCKASGYTFTNFGINWVRQRPEKGLEWIGWIFPGDGTTKYNENFKGKATLTTDKSSSTAYMQLSRLTSEDSAVYFCARFYYGNSFVNWGQGTLVTVSA VL: DIVMTQSPSSLTVTAGEKVTLSCKSSQTLLNSGNQKNYLTWYQQKPGQPPKLLIHWASTRESGVPDRFTGSGSGTDFTLTISSVQAEDLAVYYCQNNYFYPLTFGAGTKLEIK | no binding (tested: 100 nM (highest concentration tested))
0.31 nM | 1.03 nM | 18A9 (antibody, V domains shown, also called Clone 18A9; 18A9 Chimera) VH: QVQLQQSGREVVRPGTSVKVSCKPSGYAFTNYLIDWVKQRPGQGLEWIGGINPGSGDTVYNEKFKAKATLTADKSSMTANMQLSSLTSDDSAVYFCARRVRGNSFDSWGQGTLVTVSA VL: DIVMSQSPSSLTVTAGEKVTMSCKSSQSLLNSGNQKNYLTWYQQKPGQPPKLLIYWASTRESGVPDRFTGSGSGKDFTLTISSVQAEDLALYYCQNNYFYPLTFGAGTKLELK | no binding (tested: 100 nM (highest concentration tested))

Further lines, the binder ahead of its results:

Binder | EC50 [1] | EC50 [3] | binding result [2]
8C11 (antibody, V domains shown, also called Clone 8C11) VH: QVQLQQSGAELVKPGASVKLSCKASGYTFTTFGINWVRQRPEQGLEWIGWIFPGDGSIKYNEKFKGKATLTTDKSSSTAYMQISSLTSEDSAVYFCARFYYGNSFVSWGQGTLVTVSA VL: DIVMTQSPSSLAVTAGEKVTMTCKSSQSLLNSGNQKNYLTWYQQRPGQPPKLLLYWASTRESGVPDRFTGSGSGTDFALTITSVQAEDLAVYYCQNDYTYPFTFGSGTKLEIK | 0.23 nM |  | no binding (tested: 100 nM (highest concentration tested))
13A8 (antibody, V domains shown, also called Clone 13A8) VH: EVKLVESGGGLVRPGGSLKVSCAASGITFSRYAISWVRQTPEKRLEWVATISSGDSYTYYLDSVKGRFTISRDDAKNTLYLQMSSLRSEDTAMYYCGRLGYGNAMDYWGQGTSVTVSS VL: NIMMTQSPSSLTVTAGEKVTMSCKSSQSLLNSGNQKNYLTWYQQKPGQPPKLLIYWASTRESGVPDRFTGSGSGTDFTLTISSVQAEDLAVYYCQNDYSYPLTFGAGTKLEIK | 0.25 nM |  | no binding (tested: 100 nM (highest concentration tested))
14H11 (antibody, V domains shown, also called Clone 14H11) VH: EVQLVESGGGLVKPGGSLKLSCAVSGFTINNYGMSWVRQTPEKRLEWVATIIGGGSSTYYPDSLKGRFTISRDNAKNNLYLQMSSLRSEDTALYYCVRLYFGNSFAYWGQGTLVTVSA VL: DIVMTQSPSSLTVTAGEKVTVSCKSSQSLSNSGNQRNYLTWYQQKPGQPPKLLIYWASTRESGVPDRFTGSGSGTDFTLTISSVQAEDLAVYYCQNNYFYPLTFGAGTKLELK | 0.22 nM |  | no binding (tested: 100 nM (highest concentration tested))
